The values that follow are results of earlier work, collected in PMC2574613.

The data set deals with glycoprotein Ibα (Homo sapiens) (UniProt P07359).
Sequence of glycoprotein Ibα (Homo sapiens) (P07359 17-652): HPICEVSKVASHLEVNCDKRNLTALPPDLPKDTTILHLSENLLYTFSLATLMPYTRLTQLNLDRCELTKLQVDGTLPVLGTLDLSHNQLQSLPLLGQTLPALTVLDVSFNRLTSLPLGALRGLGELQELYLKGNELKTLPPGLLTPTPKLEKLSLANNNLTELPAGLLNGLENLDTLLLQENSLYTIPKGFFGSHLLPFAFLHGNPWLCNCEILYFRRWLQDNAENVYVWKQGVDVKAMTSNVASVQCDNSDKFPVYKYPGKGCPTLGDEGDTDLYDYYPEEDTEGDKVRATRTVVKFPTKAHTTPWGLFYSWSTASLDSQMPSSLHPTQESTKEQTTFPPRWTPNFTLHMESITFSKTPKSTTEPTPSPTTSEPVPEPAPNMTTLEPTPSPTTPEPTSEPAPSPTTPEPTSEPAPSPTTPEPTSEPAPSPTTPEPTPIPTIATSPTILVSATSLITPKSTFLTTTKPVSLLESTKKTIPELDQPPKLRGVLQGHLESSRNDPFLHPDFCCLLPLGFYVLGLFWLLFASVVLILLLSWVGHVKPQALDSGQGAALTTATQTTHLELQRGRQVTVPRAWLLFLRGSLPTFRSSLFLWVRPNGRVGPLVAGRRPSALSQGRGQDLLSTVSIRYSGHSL

Sequence of GspB N-terminal basic region (Q939N5 237-603): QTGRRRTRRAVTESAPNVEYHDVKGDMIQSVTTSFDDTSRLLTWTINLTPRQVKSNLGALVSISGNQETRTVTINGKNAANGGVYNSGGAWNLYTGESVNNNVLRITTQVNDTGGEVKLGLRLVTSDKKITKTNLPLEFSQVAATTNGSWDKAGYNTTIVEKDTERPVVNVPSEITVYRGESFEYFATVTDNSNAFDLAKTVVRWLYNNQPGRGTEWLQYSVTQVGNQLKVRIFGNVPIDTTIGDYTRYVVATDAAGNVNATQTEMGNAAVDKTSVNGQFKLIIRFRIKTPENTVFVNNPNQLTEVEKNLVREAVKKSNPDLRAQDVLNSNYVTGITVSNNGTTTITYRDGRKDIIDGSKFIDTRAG

One may read the Kd as a measure of binding affinity in units of concentration. Turning to “GspB N-terminal basic region (from UniProt Q939N5)”, the Kd was 0.0238 µM.
